Results published in patent publication US20060281109, “Polymerases” (published 2006).

B1: A-template hairpin oligo 815 (structured_DNA)
DNA: CGATCACGATCACGATCACGATCACGATCACGATCACGCTGATGTGCATGCTGTTGTTTTTTTACAACAGCATGCACATCAGCG
modifications: 5'-amino, surface coupled

Tests used:
[1] = target: T1, 9°N-7 YAV C223S exo- 71 deletion (C-terminus 704) (Thermococcus sp. 9°N-7) (UniProt Q56366); settings: crude enzyme; kobs relative to YAV, essentially inactive
T1 sequence: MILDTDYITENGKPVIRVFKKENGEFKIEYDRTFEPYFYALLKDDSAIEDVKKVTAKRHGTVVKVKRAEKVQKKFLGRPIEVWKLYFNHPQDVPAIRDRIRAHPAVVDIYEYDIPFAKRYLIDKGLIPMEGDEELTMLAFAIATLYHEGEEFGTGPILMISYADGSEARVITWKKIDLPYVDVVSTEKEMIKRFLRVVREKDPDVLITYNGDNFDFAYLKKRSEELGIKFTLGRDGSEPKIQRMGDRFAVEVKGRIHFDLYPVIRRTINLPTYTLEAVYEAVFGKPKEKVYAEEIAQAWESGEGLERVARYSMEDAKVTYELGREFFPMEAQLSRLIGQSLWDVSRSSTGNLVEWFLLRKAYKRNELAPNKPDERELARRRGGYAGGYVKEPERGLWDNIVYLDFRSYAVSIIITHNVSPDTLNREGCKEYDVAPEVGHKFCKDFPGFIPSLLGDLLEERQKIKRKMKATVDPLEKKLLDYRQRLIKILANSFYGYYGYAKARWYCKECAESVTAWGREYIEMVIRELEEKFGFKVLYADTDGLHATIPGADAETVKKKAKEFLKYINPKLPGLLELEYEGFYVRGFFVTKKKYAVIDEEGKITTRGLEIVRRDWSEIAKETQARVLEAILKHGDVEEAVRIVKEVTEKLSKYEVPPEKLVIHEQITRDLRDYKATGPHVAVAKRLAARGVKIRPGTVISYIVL

[2] = target: T2, 9°N-7 DNA polymerase YAV C223S exo- (clone 9) C223S,L408Y,Y409A,P410V (Thermococcus sp. 9°N-7) (UniProt Q56366); settings: burst kobs, DNA:pol 5:1; biphasic, burst amplitude 19%
T2 sequence: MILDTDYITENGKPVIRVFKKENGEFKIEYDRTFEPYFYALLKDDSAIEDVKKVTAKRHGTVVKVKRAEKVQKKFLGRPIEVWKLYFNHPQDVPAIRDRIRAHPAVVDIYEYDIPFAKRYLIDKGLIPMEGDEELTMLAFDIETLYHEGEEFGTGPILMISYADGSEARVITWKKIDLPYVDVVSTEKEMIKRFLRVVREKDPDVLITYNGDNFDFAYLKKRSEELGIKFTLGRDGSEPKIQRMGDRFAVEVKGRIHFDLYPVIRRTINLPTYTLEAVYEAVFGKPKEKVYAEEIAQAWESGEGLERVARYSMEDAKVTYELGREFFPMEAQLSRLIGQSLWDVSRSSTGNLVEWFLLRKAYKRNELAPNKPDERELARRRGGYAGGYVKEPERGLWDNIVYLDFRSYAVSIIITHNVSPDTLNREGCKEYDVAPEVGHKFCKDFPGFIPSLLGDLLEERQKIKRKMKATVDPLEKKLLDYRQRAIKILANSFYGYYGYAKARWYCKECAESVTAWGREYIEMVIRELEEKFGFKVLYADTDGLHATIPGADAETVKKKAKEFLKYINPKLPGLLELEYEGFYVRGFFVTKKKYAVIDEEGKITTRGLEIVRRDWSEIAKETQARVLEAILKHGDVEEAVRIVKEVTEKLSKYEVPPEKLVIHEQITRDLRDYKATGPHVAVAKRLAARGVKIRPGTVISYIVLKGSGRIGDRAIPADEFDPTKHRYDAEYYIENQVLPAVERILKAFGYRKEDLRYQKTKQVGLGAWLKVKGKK

[3] = target: T3, 9°N-7 YAV C223S exo- K705A (Thermococcus sp. 9°N-7, UniProt Q56366 SEQ:1-775); settings: burst kobs, DNA:pol 5:1; biphasic, burst amplitude ~28%
T3 chain: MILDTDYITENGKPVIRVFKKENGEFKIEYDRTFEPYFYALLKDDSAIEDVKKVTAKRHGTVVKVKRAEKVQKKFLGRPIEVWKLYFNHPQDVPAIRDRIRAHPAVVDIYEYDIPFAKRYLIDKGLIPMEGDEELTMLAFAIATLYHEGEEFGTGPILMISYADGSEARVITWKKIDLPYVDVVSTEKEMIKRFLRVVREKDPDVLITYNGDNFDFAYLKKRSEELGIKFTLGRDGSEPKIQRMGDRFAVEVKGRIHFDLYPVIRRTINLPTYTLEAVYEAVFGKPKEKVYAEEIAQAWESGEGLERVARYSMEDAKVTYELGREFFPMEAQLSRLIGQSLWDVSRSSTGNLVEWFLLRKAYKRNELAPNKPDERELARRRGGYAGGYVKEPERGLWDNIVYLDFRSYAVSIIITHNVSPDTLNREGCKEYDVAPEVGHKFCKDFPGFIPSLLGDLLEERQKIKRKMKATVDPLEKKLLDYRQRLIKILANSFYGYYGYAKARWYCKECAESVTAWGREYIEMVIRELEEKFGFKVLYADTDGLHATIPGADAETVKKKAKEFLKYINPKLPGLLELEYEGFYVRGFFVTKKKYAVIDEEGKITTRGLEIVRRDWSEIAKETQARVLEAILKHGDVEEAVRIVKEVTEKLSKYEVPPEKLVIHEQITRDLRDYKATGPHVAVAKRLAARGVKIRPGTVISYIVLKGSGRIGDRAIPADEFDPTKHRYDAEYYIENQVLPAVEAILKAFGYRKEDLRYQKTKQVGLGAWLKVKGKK

[4] = target: T4, 9°N-7 YAV C223S exo- R713A (Thermococcus sp. 9°N-7) (UniProt Q56366); settings: kobs, DNA:pol 5:1; single exponential, amplitude ~90%
T4 sequence: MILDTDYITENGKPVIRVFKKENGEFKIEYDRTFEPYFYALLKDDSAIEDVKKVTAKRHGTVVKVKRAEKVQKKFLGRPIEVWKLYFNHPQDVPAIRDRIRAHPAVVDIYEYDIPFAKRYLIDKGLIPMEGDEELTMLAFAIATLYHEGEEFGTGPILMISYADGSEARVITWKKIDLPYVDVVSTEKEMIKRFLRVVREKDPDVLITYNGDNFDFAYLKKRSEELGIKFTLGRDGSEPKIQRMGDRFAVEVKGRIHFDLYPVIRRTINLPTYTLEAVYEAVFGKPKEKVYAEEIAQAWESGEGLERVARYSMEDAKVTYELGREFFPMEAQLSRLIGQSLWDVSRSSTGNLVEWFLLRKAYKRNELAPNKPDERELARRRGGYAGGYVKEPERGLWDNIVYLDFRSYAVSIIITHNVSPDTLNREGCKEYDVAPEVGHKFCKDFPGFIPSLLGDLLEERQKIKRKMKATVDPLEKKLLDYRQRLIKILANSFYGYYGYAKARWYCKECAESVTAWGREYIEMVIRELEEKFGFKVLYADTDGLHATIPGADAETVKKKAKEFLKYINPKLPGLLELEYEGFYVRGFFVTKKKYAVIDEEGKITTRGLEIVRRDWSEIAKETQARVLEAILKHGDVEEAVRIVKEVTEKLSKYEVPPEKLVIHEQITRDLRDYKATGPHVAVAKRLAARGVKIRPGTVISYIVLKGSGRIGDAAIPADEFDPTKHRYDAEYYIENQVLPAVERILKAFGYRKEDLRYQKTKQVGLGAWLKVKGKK

[5] = target: T5, 9°N-7 YAV C223S exo- R743A (Thermococcus sp. 9°N-7) (UniProt Q56366); settings: kobs, DNA:pol 5:1; single exponential, amplitude ~90%
T5 sequence: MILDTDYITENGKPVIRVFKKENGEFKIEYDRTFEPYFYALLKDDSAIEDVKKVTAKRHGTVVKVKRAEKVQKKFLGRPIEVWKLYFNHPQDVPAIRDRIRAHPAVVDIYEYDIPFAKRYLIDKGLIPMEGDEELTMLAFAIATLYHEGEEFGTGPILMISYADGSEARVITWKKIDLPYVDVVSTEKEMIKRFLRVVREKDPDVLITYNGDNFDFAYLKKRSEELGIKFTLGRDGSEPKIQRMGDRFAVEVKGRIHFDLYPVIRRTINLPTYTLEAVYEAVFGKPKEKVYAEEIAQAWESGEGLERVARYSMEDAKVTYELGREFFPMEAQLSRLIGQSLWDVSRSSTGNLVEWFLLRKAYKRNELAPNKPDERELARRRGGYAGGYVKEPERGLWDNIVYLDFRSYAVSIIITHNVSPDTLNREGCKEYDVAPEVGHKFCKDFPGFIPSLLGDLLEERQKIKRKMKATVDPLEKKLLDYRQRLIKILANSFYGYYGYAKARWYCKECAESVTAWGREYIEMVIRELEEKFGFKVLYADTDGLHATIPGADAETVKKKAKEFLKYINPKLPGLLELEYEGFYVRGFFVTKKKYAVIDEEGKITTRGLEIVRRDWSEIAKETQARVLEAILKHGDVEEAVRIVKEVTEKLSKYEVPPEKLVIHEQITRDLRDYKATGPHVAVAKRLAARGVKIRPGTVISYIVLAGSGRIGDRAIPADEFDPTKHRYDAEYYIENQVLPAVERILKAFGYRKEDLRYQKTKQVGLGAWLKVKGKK

[6] = target: T3, 9°N-7 YAV C223S exo- K705A; experiment: washing assay; similar response to clone 9; settings: hairpin with 5' overhang
Description: Once washed, each well was incubated with a 20 μl aliquot of 500 nM enzyme (clone 9, K705A, R713A or R743A mutants) at 45° C. for 30 minutes. Post incubation, each well was washed with […] 10 mM Tris pH 8.0, 10 mM EDTA including varying concentrations of NaCl (0, 0.05, 0.1, 0.3, 0.4, 0.75, 1.0, 2.0 M) and then […] MilliQ water. Wells were subsequently pre-equilibrated with enzymology buffer prior to a further incubation of 20 μl of 2 μM ffT-N3-647 at 45° C. for 30 minutes. Wells were washed with 3×100 ml high salt wash buffer (10 mM Tris pH 8.0, 1M NaCl, 10 mM EDTA) and then 3×100 ml MilliQ water. Strips scanned on Typhoon fluorescence imager (y5 filter, PMT=500 V).

Molecule | relative kobs (% of YAV) [1] | activity [2] | activity [3] | activity [4] | activity [5] | binding result [6]
10 A hairpin DNA | 21% | 0.06 s⁻¹ | 0.06 s⁻¹ | 0.01 s⁻¹ | 0.004 s⁻¹ | 
B1 |  |  |  |  |  | binds
